From PMC10648141, “Screening of Oral Potential Angiotensin-Converting Enzyme Inhibitory Peptides from Zizyphus jujuba Proteins Based on Gastrointestinal Digestion In Vivo” (International Journal of Molecular Sciences, 2023)
Values joined by “and” are separate entries in the source; they are usually repeats but may differ in a detail not shown here. Equal entries are not always repeated. Residues, ends and D or L forms follow the SMILES beside them. No end group written: not given here.

Molecular target: T1, ACE (Homo sapiens, UniProt P12821)
T1 construct: purchased Sigma-Aldrich
T1 sequence (P12821 30-1306, species assumed): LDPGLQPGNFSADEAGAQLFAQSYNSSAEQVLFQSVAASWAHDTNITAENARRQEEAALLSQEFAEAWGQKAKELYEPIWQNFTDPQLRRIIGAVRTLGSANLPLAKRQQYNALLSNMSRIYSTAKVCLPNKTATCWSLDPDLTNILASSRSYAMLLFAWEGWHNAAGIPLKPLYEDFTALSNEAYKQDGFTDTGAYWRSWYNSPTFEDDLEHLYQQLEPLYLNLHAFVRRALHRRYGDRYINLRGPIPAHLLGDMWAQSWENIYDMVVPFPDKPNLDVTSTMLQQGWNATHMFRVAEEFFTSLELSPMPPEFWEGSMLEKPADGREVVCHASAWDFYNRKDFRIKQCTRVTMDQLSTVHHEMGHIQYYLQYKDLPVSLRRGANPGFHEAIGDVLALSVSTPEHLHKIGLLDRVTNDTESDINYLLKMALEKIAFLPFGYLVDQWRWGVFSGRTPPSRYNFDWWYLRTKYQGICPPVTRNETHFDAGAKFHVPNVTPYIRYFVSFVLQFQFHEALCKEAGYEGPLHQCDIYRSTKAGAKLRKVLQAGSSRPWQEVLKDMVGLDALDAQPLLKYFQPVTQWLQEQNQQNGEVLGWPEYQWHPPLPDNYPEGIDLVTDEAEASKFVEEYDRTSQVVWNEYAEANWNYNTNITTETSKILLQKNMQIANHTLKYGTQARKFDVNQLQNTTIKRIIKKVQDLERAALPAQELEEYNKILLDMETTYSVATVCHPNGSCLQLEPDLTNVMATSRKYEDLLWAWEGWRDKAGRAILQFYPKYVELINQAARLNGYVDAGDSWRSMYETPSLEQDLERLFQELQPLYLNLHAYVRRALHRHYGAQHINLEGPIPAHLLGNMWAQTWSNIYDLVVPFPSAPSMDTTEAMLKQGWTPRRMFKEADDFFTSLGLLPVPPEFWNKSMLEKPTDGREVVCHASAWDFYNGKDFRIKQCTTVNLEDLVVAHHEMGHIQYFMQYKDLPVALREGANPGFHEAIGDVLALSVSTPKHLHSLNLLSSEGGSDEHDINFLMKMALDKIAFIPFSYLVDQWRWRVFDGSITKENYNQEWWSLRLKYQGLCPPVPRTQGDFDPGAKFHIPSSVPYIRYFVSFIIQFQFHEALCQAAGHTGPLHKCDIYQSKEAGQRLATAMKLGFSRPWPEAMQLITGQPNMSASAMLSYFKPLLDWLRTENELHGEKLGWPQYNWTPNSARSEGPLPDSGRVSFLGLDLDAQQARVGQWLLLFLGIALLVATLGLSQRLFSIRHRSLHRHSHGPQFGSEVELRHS
Experiment: not given
Set-up: method as in our group and the DFBP database
Conditions: ACE-inhibitory activity used as 3D-QSAR input (training set 34, test set 12 marked *); ref our group and the DFBP database; cited from earlier work
In the case of “FPEVFGK [ACEI peptide, 3D-QSAR training set]”, the PIC50 is given as -2.15. In the case of “FQKVVAK [ACEI peptide, 3D-QSAR test set]”, the PIC50 is given as -0.32. In the case of “Tyr-Pro-Gly [ACEI peptide, 3D-QSAR training set]”, the PIC50 is given as -1.37. In the case of “GKDAVIV [ACEI peptide, 3D-QSAR training set]”, the PIC50 is listed as -1.26. In the case of “YETGNGIK [ACEI peptide, 3D-QSAR training set]”, the PIC50 is listed as -0.57. In the case of “LPQNILP [ACEI peptide, 3D-QSAR test set]”, the PIC50 is given as -1.66. In the case of “PANIKWGD [ACEI peptide, 3D-QSAR training set]”, the PIC50 is listed as -1.32. In the case of “Leu-Val-Leu [ACEI peptide, 3D-QSAR training set]”, the PIC50 is listed as -1.09. For “IIAPPER [ACEI peptide, 3D-QSAR training set]”, the PIC50 is listed as -0.94. For “Lys-Ser-Val [ACEI peptide, 3D-QSAR training set]”, the PIC50 is given as -3.01. In the case of “Cys-Cys-Asn-Lys (CCNK) [ACEI peptide, 3D-QSAR training set]”, the PIC50 is given as -0.95. For “LVLPGELAK [ACEI peptide, 3D-QSAR training set]”, the PIC50 is given as -2.26. For “Pro-Ser-Phe-Gln-Pro (PSFQP) [ACEI peptide, 3D-QSAR training set]”, the PIC50 is given as -1.86. In the case of “Leu-Ala-Lys [ACEI peptide, 3D-QSAR test set]”, the PIC50 is listed as -1.68. In the case of “Ala-His-Ser-Val (AHSV) [ACEI peptide, 3D-QSAR training set]”, the PIC50 is listed as -3.26. For “Ser-Leu-Pro-Gln-Asn (SLPQN) [ACEI peptide, 3D-QSAR training set]”, the PIC50 is listed as -0.98. In the case of AHSVRF [ACEI peptide, 3D-QSAR test set], the PIC50 is listed as -1.26. For “LPGVLPVA [ACEI peptide, 3D-QSAR test set]”, the PIC50 is given as 0.11. For “PTHIKWGD [ACEI peptide, 3D-QSAR training set]”, the PIC50 is listed as -0.18. For “Asp-Phe-Gly [ACEI peptide, 3D-QSAR training set]”, the PIC50 is given as -1.65. For “His-Cys-His-Thr-Asn (HCHTN) [ACEI peptide, 3D-QSAR test set]”, the PIC50 is listed as -1.48. For “CCNKSV (cysteine pairing not given here) [ACEI peptide, 3D-QSAR test set]”, the PIC50 is listed as -1.18. In the case of “TFQGPPHGIQVER [ACEI peptide, 3D-QSAR training set]”, the PIC50 is listed as -0.53. For “GIPLPLI [ACEI peptide, 3D-QSAR training set]”, the PIC50 is given as -1.87. In the case of “IGPGLGR [ACEI peptide, 3D-QSAR training set]”, the PIC50 is given as -2.32. For “Val-His-Leu-Pro-Pro (VHLPP) [ACEI peptide, 3D-QSAR test set]”, the PIC50 is given as -1.26. For “GYALPHA [ACEI peptide, 3D-QSAR training set]”, the PIC50 is listed as -1.44. In the case of “KVREGTTY [ACEI peptide, 3D-QSAR training set]”, the PIC50 is listed as -2.01. For “NMAINPSK [ACEI peptide, 3D-QSAR training set]”, the PIC50 is listed as -1.78. For “Phe-Pro-Gln-Tyr (FPQY) [ACEI peptide, 3D-QSAR training set]”, the PIC50 is given as -2.48. For “LGPLGHQ [ACEI peptide, 3D-QSAR training set]”, the PIC50 is given as -0.63. For “Val-Leu-Pro-Tyr-Pro (VLPYP) [ACEI peptide, 3D-QSAR training set]”, the PIC50 is listed as -1.56. In the case of “FCLYELAR [ACEI peptide, 3D-QSAR training set]”, the PIC50 is given as -1.50. In the case of TYLPVH [ACEI peptide, 3D-QSAR test set], the PIC50 is listed as -0.14. For “LVLPGE [ACEI hexapeptide of the authors' previous studies; alignment template, training set]”, the PIC50 is listed as -1.13. For “Tyr-Thr-Val-Phe (YTVF) [ACEI peptide, 3D-QSAR training set]”, the PIC50 is listed as -1.94. For “LHPGDAQR [ACEI peptide, 3D-QSAR training set]”, the PIC50 is given as -1.01. For “Leu-Gln-Lys-Trp (LQKW) [ACEI peptide, 3D-QSAR test set]”, the PIC50 is listed as -1.54. For “AHSVRFY [ACEI peptide, 3D-QSAR test set]”, the PIC50 is listed as -1.21. In the case of “Gln-Val-Gly-Pro (QVGP) [ACEI peptide, 3D-QSAR training set]”, the PIC50 is listed as -2.21. For “Leu-Phe-Arg-Gln (LFRQ) [ACEI peptide, 3D-QSAR test set]”, the PIC50 is listed as -1.23. In the case of “ADGLWL [ACEI peptide, 3D-QSAR training set]”, the PIC50 is listed as -2.45. In the case of “GRVSNCAA [ACEI peptide, 3D-QSAR training set]”, the PIC50 is listed as -1.76. In the case of “His-Cys-His-Thr (HCHT) [ACEI peptide, 3D-QSAR training set]”, the PIC50 is given as -2.06.

Molecular target: T1, ACE
Experiment: ACE-inhibitory activity assay in vitro (HHL substrate, hippuric acid by HPLC)
Assay type: biochemical
Conditions: 1 h, pH 8.3, read-out: ACE Inhibition Rate (%) (2 mg/mL)
Method: The method used to determine ACE-inhibitory activity was designed according to that of Sangsawad et al. with minor modifications. […] The reaction mixture comprised 50 μL of peptide and 50 μL of ACE (25 mU/mL), undergoing pre-incubation for 5 min at 37 °C. Subsequently, 150 μL of substrate (8.3 mM HHL in 0.1 M Tris-HCl buffer with 500 mM NaCl at pH 8.3) was introduced, and the sample was further incubated at 37 °C for 60 min. Following the completion of the reaction, it was terminated via the addition of 1 M HCl. […] IC50 was used to express the activity of hydrolysate; all analyses were carried out under five different concentrations in triplicate.
With `CC(C)C[C@H](NC(=O)[C@H](Cc1c[nH]cn1)NC(=O)[C@H](CC(C)C)NC(=O)[C@@H](N)Cc1ccc(O)cc1)C(=O)O` [YLHL] (H-YLHL-OH) the inhibition at 2000 µg/mL was 65.4%.

Same assay, conditions: 1 h; peptide 2 mg/mL; HHL substrate, pH 8.3, 37 °C, 60 min; HPLC of hippuric acid; read-out: ACE Inhibition Rate (%) (2 mg/mL)
Work on PRPKPPP [PRPKPPP] yielded an inhibition at 2000 µg/mL of 74.8%. `N=C(N)NCCC[C@H](NC(=O)[C@@H]1CCCN1C(=O)[C@H](Cc1ccccc1)NC(=O)[C@@H](N)CCCNC(=N)N)C(=O)O` [RFPR] (H-RFPR-OH) gave an inhibition at 2000 µg/mL of 22.9%. In the case of RLPHV [RLPHV], the inhibition at 2000 µg/mL is reported as 100%. Work on `N=C(N)NCCC[C@H](NC(=O)[C@H](CCC(=O)O)NC(=O)[C@@H]1CCCN1)C(=O)N[C@@H](CCCCN)C(=O)O` [PERK] (H-PERK-OH) yielded an inhibition at 2000 µg/mL of 4.5%. LEKPLL [LEKPLL] showed an inhibition at 2000 µg/mL of 24.2%. KALVAP [KALVAP] gave an inhibition at 2000 µg/mL of 100%. For LEKLVT [LEKLVT], the inhibition at 2000 µg/mL was 30.5%. TVKPGL [TVKPGL] gave an inhibition at 2000 µg/mL of 100%. With KVKPL [KVKPL] the inhibition at 2000 µg/mL was -14.2%.

Same assay, conditions: HHL substrate, pH 8.3, 37 °C, 60 min; HPLC of hippuric acid; five concentrations in triplicate
For RLPHV [RLPHV], the IC50 was 3.81 µM and 6.01 µM. In the case of KALVAP [KALVAP], the IC50 is reported as 17.1 µM. With TVKPGL [TVKPGL] the IC50 was 6.01 µM and 3.81 µM.

System: not listed separately
Experiment: Stability of peptides after simulated gastrointestinal digestion in vitro
Assay type: in vitro ADME
Conditions: pepsin (1000 U/mL) and pancreatin (50 U/mL); peptide 0.5 mg/mL; LC-MS (Q Exactive, ESI positive); peak area after/before digestion × 100
Method: The stability in vitro digestion followed the method we reported previously with minor modifications. Pepsin (1000 U/mL) and pancreatin (50 U/mL) were used to digest the peptide (0.5 mg/mL). A Q Exactive system (Thermo Fisher Scientific, USA) equipped with ESI in positive ion mode was used for mass spectrometric detection. Stability %=Peak area after digestion sample/Peak area before digestion sample×100%
In the case of RLPHV [RLPHV], the “Simulated Gastrointestinal Digestion Stability %” value is reported as 82%. With KALVAP [KALVAP] the “Simulated Gastrointestinal Digestion Stability %” value was 78%. With TVKPGL [TVKPGL] the “Simulated Gastrointestinal Digestion Stability %” value was 90%.
